# Test results as given in patent publication US20050058639A1 (AstraZeneca / MedImmune, published 2005).
# B1: anti-MCP-1 mAb 3.11.1 (antibody, human IgG4, kappa, V domains shown)
# VH: QVQLQESGPGLVKPSQTLSLTCTVSGGSISSGGNYWNWIRQHPGKGLEWIGYIYYSGNTYYNPSLKSRITISIDTSKNQFSLTLSSVTAADTAVYYCARDGGDDAFDIWGQGTMVTVSS
# VL: DIQMTQSPSSLSASVGDRVTITCQASQDISNYLNWYQQKPGKAPKLLIYDASNLETGVPSRFSGSGSGTDFTFTINSLQPEDIATYYCQEYNNLPYSFGQGTKLEIKR
# Tests used:
# [1] = biological target: T1, human monocyte chemo-attractant protein-1 (MCP-1) (human, UniProt P13500 24-99); assay: cell-based or functional assay
# T1 sequence (P13500 24-99): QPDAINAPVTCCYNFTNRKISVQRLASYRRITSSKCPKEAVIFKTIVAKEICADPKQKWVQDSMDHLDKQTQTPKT
# [2] = biological target: T1, human monocyte chemo-attractant …; assay: Biacore 2000, mAb immobilized, antigen injected; Biacore, 25 C, native MCP-1 injected over immobilized mAb 3.11.2 (250 RU)
# Method: (§1) The interaction analysis was performed at 25° C. using two CM5 chips docked in Biacore 2000 optical biosensors. Individual flow cells on each chip were activated with a 7-minute injection of NHS/EDC, carbohydrazide was coupled through the NHS ester using a 7-minute injection, and the residual activated groups were blocked with a 7-minute injection of ethanolamine. […] The oxidized antibody was desalted into 10 mM sodium acetate, pH 5.0, to couple the antibody to the carbohydrazide-modified surface. […] The mAb surfaces were stabilized by reducing the hydrazone bond with 0.1 M sodium cyanoborohydride. The antigen/antibody interaction was tested by injecting duplicate antigen samples diluted in running buffer (10 mM HEPES, 150 mM NaCl, 0.005% surfactant, 200 μg/mL BSA, pH 7.4), in a 300-fold concentration range. The surfaces were regenerated with a 12-second pulse of 15 mM H₃PO₄.
# [3] = biological target: T1, human monocyte chemo-attractant …; assay: ELISA, hybridoma supernatant on coated MCP-1; ELISA, hybridoma supernatant on plate-coated non-reduced MCP-1 (2 ug/mL)
# Method: Selection of candidate antibodies for ELISA. After 14 days of culture, hybridoma supernatants were screened for MCP-1-specific monoclonal antibodies. The ELISA plates (Fisher, Cat. No. 12-565-136) were coated with 50 μl/well of MCP-1 (2 μg/mL) in Coating Buffer (0.1 M Carbonate Buffer, pH 9.6, NaHCO₃8.4 g/L), then incubated at 4° C. overnight. After incubation, the plates were washed with Washing Buffer (0.05% Tween 20 in PBS) three times. 200 μl/well Blocking Buffer (0.5% BSA, 0.1% Tween 20, 0.01% Thimerosal in 1× PBS) were added and the plates incubated at room temperature for 1 hour. After incubation, the plates were washed with Washing Buffer three times. 50 μL/well of hybridoma supernatants, and positive and negative controls were added and the plates incubated at room temperature for 2 hours.
# The positive control used throughout was XMG2 MCP-1 Group 1, footpad N160-7 and the negative control was XMG2 KLH Group 1, footpad L627-6. After incubation, the plates were washed three times with Washing Buffer. […] In the secondary screen, three sets of samples (positives in first screening) were screened, one set for hIgG detection, one set for hKappa detection, and one set for hlambda detection. After incubation, the plates were washed three times with Washing Buffer. 100 μL/well of TMB (BioFX Lab. Cat. #TMSK-0100-01) were added and the plates allowed to develop for about 10 minutes (until negative control wells barely started to show color), then 50 μL/well stop solution (TMB Stop Solution (BioFX Lab. Cat. #STPR-0100-01) were added and the plates read on an ELISA plate reader at wavelength 450 nm. The OD readings from the positive wells are presented in Table 9.
# [4] = biological target: T1, human monocyte chemo-attractant …; assay: ELISA, coated antigen; ELISA, purified clone 1:50 on coated hMCP-1 (2 ug/mL), cross-reactivity panel
# Method: Determining cross-reactivity of anti-MCP-1 antibodies with other chemokines. ELISA plates (Fisher Cat. No. 12-565-136) were coated with 50 μl/well of MCP-1, MCP-2, MCP-3, MCP-4, RANTES, GRO-alpha, MIP-1 alpha, eotaxin, rat MCP-1 and mouse JE (2 μg/ml) in coating buffer (0.1 M carbonate buffer, pH 9.6, NaHCO₃ 8.4 g/L, then incubated at 4° C. overnight. After incubation, the plates were washed with washing buffer (0.05% Tween 20 in PBS) three times. 200 μL/well blocking buffer (0.5% BSA, 0.1% Tween 20, 0.01% Thimerosal in 1×PBS) were added and the plates incubated at room temperature for 1 hour. After incubation, the plates were washed with washing buffer three times. 50 μL/well of hybridoma supernatants, and positive and negative controls (positive control was anti-MCP-1 antibody purchased from R&D Sciences, and negative control was an antibody to Keyhole Limpet Hemocyanin produced at Abgenix) were added and the plates incubated at room temperature for 2 hours. After incubation, the plates were washed three times with washing buffer. […] After incubation, the plates were washed three times with washing buffer and 100 μL/well of TMB (BioFX Lab. Cat. #TMSK-0 100-01) was added and the plates allowed to develop for about 10 minutes.
# human eotaxin = biological target: T2, human eotaxin (human, UniProt P51671 24-97); assay: ELISA, coated antigen
# T2 construct: also called hEotaxin
# T2 sequence (P51671 24-97 limits assumed): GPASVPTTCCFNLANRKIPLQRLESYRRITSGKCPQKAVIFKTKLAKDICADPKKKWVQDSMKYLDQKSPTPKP
# Procedure, shortened: (§2)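 Plates coated overnight at 4° C with MCP-1, MCP-2, MCP-3, MCP-4, RANTES, GRO-alpha, MIP-1 alpha, eotaxin, rat MCP-1 or mouse JE (2 μg/ml, carbonate buffer pH 9.6), blocked with BSA. Hybridoma supernatants bound 2 hours at room temperature; TMB colour developed about 10 minutes.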
# human RANTES = biological target: T3, human RANTES (human, UniProt P13501 24-91); assay: ELISA, coated antigen
# T3 construct: also called hRANTES
# T3 sequence (looked up): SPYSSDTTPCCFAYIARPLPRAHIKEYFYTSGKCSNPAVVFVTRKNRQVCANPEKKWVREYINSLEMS
# Procedure, shortened: as §2
# human GRO/MGSA = biological target: T4, human GRO/MGSA (human, UniProt P09341 35-107); assay: ELISA, coated antigen
# T4 construct: also called hGRO/MGSA; GRO-alpha
# T4 sequence (looked up): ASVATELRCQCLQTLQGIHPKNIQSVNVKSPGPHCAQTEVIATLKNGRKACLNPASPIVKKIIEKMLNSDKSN
# Procedure, shortened: as §2
# recombinant human MCP-2 [5] = biological target: T5, recombinant human MCP-2 (human, UniProt P80075 24-99); assay: ELISA, coated antigen
# T5 construct: also called rhMCP-2
# T5 sequence (looked up): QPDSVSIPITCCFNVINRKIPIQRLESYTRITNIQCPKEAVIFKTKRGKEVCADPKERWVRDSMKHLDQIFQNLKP
# Procedure, shortened: as §2
# recombinant human MCP-3 [6] = biological target: T6, recombinant human MCP-3 (human, UniProt P80098 24-99); assay: ELISA, coated antigen
# T6 construct: also called rhMCP-3
# T6 sequence (P80098 24-99 limits assumed): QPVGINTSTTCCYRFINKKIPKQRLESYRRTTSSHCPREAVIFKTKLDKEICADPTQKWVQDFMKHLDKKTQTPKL
# Procedure, shortened: as §2
# [7] = biological target: T7, recombinant mouse JE/MCP-1 (mouse, UniProt P10148 24-148); assay: ELISA, coated antigen
# T7 construct: also called rmJE/MCP-1
# T7 sequence (P10148 24-148 limits assumed): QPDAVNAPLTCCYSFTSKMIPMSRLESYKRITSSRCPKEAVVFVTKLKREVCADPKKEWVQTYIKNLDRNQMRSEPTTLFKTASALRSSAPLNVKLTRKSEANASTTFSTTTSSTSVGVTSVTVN
# Procedure, shortened: as §2
# rat MCP-1 = rat MCP-1 (rat, UniProt P14844 24-148); assay: ELISA, coated antigen
# rat MCP-1, sequence (P14844 24-148 limits assumed): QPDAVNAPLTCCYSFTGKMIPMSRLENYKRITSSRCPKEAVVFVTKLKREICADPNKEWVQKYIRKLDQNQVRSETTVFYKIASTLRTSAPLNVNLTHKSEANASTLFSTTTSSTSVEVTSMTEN
# Procedure, shortened: as §2
# human MIP-1-alpha = biological target: T8, human MIP-1-alpha (human, UniProt P10147 24-92, limits assumed); assay: ELISA, coated antigen
# T8 construct: also called hMIP-1-alpha
# T8 sequence (looked up): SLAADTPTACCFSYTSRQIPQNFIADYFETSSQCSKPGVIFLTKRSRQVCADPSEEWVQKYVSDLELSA
# Procedure, shortened: as §2
# recombinant human MCP-4 [8] = biological target: T9, recombinant human MCP-4 (human, UniProt Q99616 24-98, limits assumed); assay: ELISA, coated antigen
# T9 construct: also called rhMCP-4
# T9 sequence (Q99616 24-98 limits assumed): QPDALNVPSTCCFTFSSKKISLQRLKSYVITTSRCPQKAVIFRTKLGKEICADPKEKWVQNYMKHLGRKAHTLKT
# Procedure, shortened: as §2
# recombinant human MCP-3 [9] = biological target: T6, recombinant human MCP-3; assay: cell-based or functional assay
# recombinant human MCP-2 [10] = biological target: T5, recombinant human MCP-2; assay: Biacore 2000, mAb immobilized, antigen injected
# Method: as §1
# recombinant human MCP-3 [11] = biological target: T6, recombinant human MCP-3; assay: Biacore 2000, mAb immobilized, antigen injected
# Method: as §1
# recombinant human MCP-4 [12] = biological target: T9, recombinant human MCP-4; assay: Biacore 2000, mAb immobilized, antigen injected
# Method: as §1
binder,measurement,setting,value
B1,IC50 Ca++ Flux,[1],0.092 µg/mL
same,IC50 Chemotaxis,[1],0.33 µg/mL
same,Kd,[2],0.0033 nM
same,koff,[2],0.001 s⁻¹
same,kon,[2],3e+08 M⁻¹ s⁻¹
same,ELISA OD-MCP-1,[3],4 OD450
same,ELISA OD,[4],0.803 OD450
same,ELISA OD,human eotaxin,0.339 OD450
same,ELISA OD,human RANTES,0.064 OD450
same,ELISA OD,human GRO/MGSA,0.054 OD450
same,ELISA OD,recombinant human MCP-2 [5],0.336 OD450
same,ELISA OD,recombinant human MCP-3 [6],1.32 OD450
same,ELISA OD,[7],0.063 OD450
same,ELISA OD,rat MCP-1,0.057 OD450
same,ELISA OD,human MIP-1-alpha,0.053 OD450
same,ELISA OD,recombinant human MCP-4 [8],0.981 OD450
same,"IC50, inhibition of MCP-3-induced migration of THP-1 cells (chemotaxis assay, MCP3 at 0.166 nM)",recombinant human MCP-3 [9],0.139 nM
same,Kd,recombinant human MCP-2 [10],0.046 nM
same,koff,recombinant human MCP-2 [10],0.012 s⁻¹
same,kon,recombinant human MCP-2 [10],2.6e+08 M⁻¹ s⁻¹
same,Kd,recombinant human MCP-3 [11],0.049 nM
same,koff,recombinant human MCP-3 [11],0.0074 s⁻¹
same,kon,recombinant human MCP-3 [11],1.5e+08 M⁻¹ s⁻¹
same,Kd,recombinant human MCP-4 [12],0.0037 nM
same,koff,recombinant human MCP-4 [12],0.00055 s⁻¹
same,kon,recombinant human MCP-4 [12],1.5e+08 M⁻¹ s⁻¹
